We go through seven molecules from patent US11214614B2, “LTBP complex-specific inhibitors of TGFβ and uses thereof” (Scholar Rock, Inc., priority 2019, dated 2022).

The conditions of data set [1]: literature reports (Frazier et al. 2007; Stauber et al. 2014, chronic ≥3 months); cited from earlier work.
The nature of data set [2]: Four-week toxicology study in rats. It counts as in vivo, rat. An excerpt:
Maximally tolerated dose (MTD): The term MTD generally refers to, in the context of safety/toxicology considerations, the highest amount of a test article (such as a TGFβ1 inhibitor) evaluated with no observed adverse effect level (NOAEL).
Therapeutic window: The term “therapeutic window” refers to a range of doses/concentrations that produces therapeutic response without causing significant/observable/unacceptable adverse effect (e.g., within adverse effects that are acceptable or tolerable) in subjects. Therapeutic window may be calculated as a ratio between […].
Toxicity: As used herein, the term “toxicity” or “toxicities” refers to unwanted in vivo effects in patients associated with a therapy administered to the patients, such as undesirable side effects and adverse events. “Tolerability” refers to a level of toxicities associated with a therapy or therapeutic regimen, which can be reasonably tolerated by patients, without discontinuing the therapy due to the toxicities (i.e., acceptable level of toxicities). Typically, toxicity/toxicology studies are carried out in one or more preclinical models prior to clinical development to assess safety profiles of a drug candidate (e.g., monoclonal antibody therapy). […]

Data set [3] addresses T1, huLTBP1 proTGFβ1 (Homo sapiens, UniProt P01137+Q14766). Nature of the data set: SPR (Biacore 8K) monovalent binding kinetics of Fabs, biotinylated antigen captured. Also noted: biotin (complex biotinylated). Conditions: for ka / kd: Fab, huLTBP1 proTGFβ1, SR-AB42-HuFab average of five, SR-AB63-HuFab average of four replicate experiments. The procedure: (§1) A Biacore 8K system was employed to determine the monovalent binding affinity and the kinetic parameters for antigen binding of test antibodies. Association and dissociation kinetics of Fab fragments SR-AB42-HuFab, SR-AB63-HuFab and SR-AB43-HuFab to antigen complexes were measured, and resulting ka, kd and KD are provided below. Briefly, the binding kinetics were evaluated by surface plasmon resonance using Biacore 8K (GE Healthcare). Biotinylated capture antigens were immobilized to the chip (10 nM, ˜200 RU loading). A Biotin CAPture sensor chip was used to capture the biotinylated antigens. Fabs at 10, 5, 2.5, 1.25, and 0.6 nM concentrations were injected over the captured antigens. 0 nM was used as a reference. Affinities of LTBP antibodies to GARP and LRRC33 were confirmed using higher concentration of Fabs (100, 50, 25, 12.5, 6.25 nM). 0 nM was used as a reference. Multi-cycle kinetics was employed where each analyte concentration was injected in a separate cycle and the sensor chip surface was regenerated after each cycle. All the assays were carried out in freshly prepared 1×HBS-EP+buffer (10 mM HEPES, 150 mM NaCl, 3 mM EDTA, 0.05% Tween20, pH 7.4). Data were fit globally to a 1:1 binding model to obtain the kinetic parameters. The sensorgram for 0 nM analyte concentration was used as reference.
(§2) • 96 well plates—Greinerbio-one REF 650101 • Microplate Foils—GE Healthcare—CAT #28-9758-16 • Biotin CAPture Kit GE Healthcare product number 28920233 • Biacore running buffer—supplied as a 20× solution, diluted in Milli-Q water, TEKnova CAT #H8022 Method:
(§3) These experiments were performed using the Biacore 8K using the method “multi-cycle kinetics/affinity using Biotin CAPture kit.”
(§4) Data collection rate was set to 10 Hz and the Biotin CAPture step was performed for 300 seconds with a flow rate of 2 μL/minute. The Biotin CAPture reagent was used after a 1:5 dilution in 1× Biacore running buffer. Biotinylated ligands (the various complexes of TGFβ1) were utilized at a concentration of 10 nM and were immobilized to the sensor chip for 180 seconds with a flow rate of 10 μL/minute. The analytes, which are each of the Fabs, were tested at 10, 5, 2.5, 1.25, and 0.625 nM with a 0 nM control included. Analyte contact time was 120 seconds and the dissociation time was 900 seconds. The regeneration cycle utilized was 120 seconds with a flow rate of 10 μL/minute.
(§5) The evaluation method used was “multi-cycle affinity using capture” and a 1:1 binding model was used. […] Global fits were utilized for every KD determination.
On the technique in general: Surface plasmon resonance follows binding to a sensor surface in real time, without labels.

Data set [4] addresses T2, huLTBP3 proTGFβ1 (Homo sapiens, UniProt P01137+Q9NS15). Nature of the data set: Octet (BLI) binding, IgG captured on AHC tips, antigen at 100 nM. Conditions: Table 9, cycle 3, IgG1-agly; for Hu LTBP3-proTGFβ1 Kon: 1:1 fit; for Hu LTBP3-proTGFβ1 Koff: 5-minute dissociation. Summed up: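 Antibodies loaded at 1 μg/mL onto anti-human Fc sensors were exposed to each TGFβ1 complex at 100 nM in kinetics buffer. Association ran 3 min; dissociation was 3 min in one protocol and 5 min in another. KD came from a 1:1 fitting model.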
Background: Biolayer interferometry detects binding as a change in optical thickness at a sensor tip.

The target of data set [5] is T3, huGARP proTGFβ1 (Homo sapiens, UniProt P01137). The data set is described as above. Conditions: N.B. = non-binder under conditions of this assay; for ForteBio IgG KD Hu GARP-proTGFβ1 (M) Avid: Table 9, cycle 3, IgG1-agly, 1:1 fit; for ForteBio IgG KD Hu GARP-proTGFβ1 in solution (M) Avid: Table 10, same assay conditions as Table 9. The gist of the method:
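Antibody loaded at 1 μg/mL onto anti-human Fc capture biosensors, then exposed to human GARP-proTGFβ1 at 100 nM in 1× kinetics buffer with 1000 rpm shaking. Association 3 min, dissociation 3 or 5 min; KD from 1:1 local full fit.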

The target in data set [6] is T1, huLTBP1 proTGFβ1. Described as above. Conditions: Table 9, cycle 3, IgG1-agly; for Hu LTBP1-proTGFβ1 Kon: 1:1 fit; for Hu LTBP1-proTGFβ1 Koff: 5-minute dissociation. The gist of the method:
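Antibodies were captured on anti-human Fc biosensors at 1 μg/mL (~7 nM), to a maximum response of 1 nm. Antigen complex was run at a single 100 nM in 1× kinetics buffer, shaking at 1000 rpm. Association was 3 min and dissociation 3 min (5 min in later rounds), with KD from a local, full 1:1 fit.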

In data set [7] the target is T3, huGARP proTGFβ1. Nature of the data set: SPR (Biacore 8K) monovalent binding kinetics of Fabs, biotinylated antigen captured. Conditions: Fab, huGARP proTGFb1. Also noted: biotin (complex biotinylated). The procedure:
as §1, §2, §3, §4, §5

The target in data set [8] is T2, huLTBP3 proTGFβ1. The data set is described as above. Further details: biotin (complex biotinylated). Conditions: Fab, huLTBP3 proTGFb1. The procedure:
as §1, §2, §3, §4, §5

The target in a further data set is huLRRC33 proTGFβ1 (Homo sapiens, UniProt P01137). Described as above. Further details: biotin (complex biotinylated); modified human kappa light chain signal peptide (N); Histidine tag (C). Conditions: Fab, huLRRC33 proTGFb1. As for the experimental part: as §1, §2, §3, §4, §5
A further data set addresses T4, Murine LTBP3 proTGFβ1 (Mus musculus, UniProt P04202+Q61810).
T4 construct: biotin (complex biotinylated)
Described as above. Conditions: Fab, Murine LTBP3 proTGFb1; average of two replicate experiments. As for the experimental part:
as §1, §2, §3, §4, §5

Residue numbers refer to the chain shown, from its start. Bounds are passed on as bounds.

What is called NOAEL is the highest dose or exposure tested at which no adverse effect was seen.

T4 sequence (P04202 30-390): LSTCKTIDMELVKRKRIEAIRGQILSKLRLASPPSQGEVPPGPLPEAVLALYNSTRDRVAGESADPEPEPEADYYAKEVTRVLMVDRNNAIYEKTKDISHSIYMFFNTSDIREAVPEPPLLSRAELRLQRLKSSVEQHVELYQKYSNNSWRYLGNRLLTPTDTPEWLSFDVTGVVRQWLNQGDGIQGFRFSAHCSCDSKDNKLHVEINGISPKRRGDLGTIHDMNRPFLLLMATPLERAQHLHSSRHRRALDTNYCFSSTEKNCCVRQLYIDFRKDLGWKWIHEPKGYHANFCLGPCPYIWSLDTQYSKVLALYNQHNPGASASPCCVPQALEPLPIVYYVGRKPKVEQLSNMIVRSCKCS
T4 sequence (Q61810 with tags, fused parts or gaps with the stated changes limits assumed): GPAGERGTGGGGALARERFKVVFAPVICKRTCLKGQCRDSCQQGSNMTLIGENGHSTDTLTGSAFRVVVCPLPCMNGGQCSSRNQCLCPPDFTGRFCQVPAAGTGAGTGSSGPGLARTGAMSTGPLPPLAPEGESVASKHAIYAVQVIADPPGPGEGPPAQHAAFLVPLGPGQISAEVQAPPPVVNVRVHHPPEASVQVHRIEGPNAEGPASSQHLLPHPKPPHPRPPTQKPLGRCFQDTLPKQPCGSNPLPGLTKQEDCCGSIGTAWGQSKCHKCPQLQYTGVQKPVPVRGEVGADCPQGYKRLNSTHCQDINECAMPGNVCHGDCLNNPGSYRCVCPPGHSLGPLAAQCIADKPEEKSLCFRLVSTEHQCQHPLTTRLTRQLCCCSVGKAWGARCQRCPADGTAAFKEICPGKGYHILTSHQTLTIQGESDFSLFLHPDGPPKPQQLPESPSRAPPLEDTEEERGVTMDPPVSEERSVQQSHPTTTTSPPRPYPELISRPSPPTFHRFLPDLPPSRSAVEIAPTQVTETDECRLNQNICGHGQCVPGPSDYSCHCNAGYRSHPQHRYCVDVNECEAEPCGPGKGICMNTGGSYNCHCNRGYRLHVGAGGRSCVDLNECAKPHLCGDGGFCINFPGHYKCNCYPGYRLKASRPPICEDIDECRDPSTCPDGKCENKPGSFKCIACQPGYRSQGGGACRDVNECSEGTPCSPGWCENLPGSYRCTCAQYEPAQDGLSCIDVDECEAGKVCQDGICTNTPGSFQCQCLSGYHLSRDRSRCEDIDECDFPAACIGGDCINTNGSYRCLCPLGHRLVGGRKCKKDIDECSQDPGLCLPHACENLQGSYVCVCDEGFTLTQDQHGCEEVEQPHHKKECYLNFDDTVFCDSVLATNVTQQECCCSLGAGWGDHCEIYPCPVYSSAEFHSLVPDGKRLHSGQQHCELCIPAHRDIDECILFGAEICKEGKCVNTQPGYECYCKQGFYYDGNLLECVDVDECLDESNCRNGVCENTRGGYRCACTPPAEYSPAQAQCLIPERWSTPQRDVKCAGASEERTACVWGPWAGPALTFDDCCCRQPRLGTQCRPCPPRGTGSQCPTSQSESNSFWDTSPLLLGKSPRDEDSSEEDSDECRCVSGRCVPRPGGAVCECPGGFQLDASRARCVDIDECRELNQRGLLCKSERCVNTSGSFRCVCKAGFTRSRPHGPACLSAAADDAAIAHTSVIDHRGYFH
T2 sequence (P01137 30-390): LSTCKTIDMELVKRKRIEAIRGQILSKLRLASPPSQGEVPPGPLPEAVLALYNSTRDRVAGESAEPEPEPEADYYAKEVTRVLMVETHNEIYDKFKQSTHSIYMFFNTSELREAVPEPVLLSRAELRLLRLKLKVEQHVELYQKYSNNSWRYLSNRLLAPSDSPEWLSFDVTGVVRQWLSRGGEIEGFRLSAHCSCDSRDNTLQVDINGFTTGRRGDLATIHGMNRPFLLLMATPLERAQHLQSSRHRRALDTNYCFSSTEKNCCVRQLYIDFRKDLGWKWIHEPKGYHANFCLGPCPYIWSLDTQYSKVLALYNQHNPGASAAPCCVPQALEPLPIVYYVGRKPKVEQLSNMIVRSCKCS
T2 sequence (Q9NS15 44-1303): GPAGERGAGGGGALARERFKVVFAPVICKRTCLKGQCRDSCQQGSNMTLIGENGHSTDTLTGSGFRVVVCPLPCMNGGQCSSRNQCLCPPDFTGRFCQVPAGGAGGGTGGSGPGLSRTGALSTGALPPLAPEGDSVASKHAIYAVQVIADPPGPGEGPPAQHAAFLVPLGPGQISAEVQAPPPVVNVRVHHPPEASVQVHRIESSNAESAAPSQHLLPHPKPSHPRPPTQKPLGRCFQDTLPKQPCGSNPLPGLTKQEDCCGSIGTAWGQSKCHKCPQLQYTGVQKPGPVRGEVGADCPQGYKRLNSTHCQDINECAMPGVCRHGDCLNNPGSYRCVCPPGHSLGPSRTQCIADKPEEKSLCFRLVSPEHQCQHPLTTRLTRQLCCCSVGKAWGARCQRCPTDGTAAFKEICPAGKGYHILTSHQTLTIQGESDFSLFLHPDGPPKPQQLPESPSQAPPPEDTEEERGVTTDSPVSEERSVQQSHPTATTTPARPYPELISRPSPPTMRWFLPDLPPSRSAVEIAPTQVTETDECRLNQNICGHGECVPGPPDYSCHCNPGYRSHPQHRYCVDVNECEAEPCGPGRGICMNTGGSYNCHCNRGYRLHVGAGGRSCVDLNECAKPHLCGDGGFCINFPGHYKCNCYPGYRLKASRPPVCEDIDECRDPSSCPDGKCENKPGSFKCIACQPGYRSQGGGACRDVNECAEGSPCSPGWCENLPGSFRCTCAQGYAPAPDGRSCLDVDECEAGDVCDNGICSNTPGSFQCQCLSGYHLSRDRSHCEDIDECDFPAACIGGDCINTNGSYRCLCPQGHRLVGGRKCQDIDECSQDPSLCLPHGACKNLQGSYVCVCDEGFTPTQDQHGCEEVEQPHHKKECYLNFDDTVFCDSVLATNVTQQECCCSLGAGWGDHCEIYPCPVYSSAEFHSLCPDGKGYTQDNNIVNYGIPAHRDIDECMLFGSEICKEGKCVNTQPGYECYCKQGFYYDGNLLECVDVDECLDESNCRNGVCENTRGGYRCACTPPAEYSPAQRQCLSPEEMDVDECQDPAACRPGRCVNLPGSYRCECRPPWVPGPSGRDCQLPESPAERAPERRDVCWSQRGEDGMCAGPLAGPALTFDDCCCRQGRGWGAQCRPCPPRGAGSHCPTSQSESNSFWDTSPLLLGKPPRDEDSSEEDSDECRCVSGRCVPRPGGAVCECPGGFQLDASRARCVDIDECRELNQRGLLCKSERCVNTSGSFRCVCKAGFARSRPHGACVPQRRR
T1 sequence (P01137 30-390): as the sequence (P01137 30-390) above
T1 sequence (Q14766 347-1721 limits assumed): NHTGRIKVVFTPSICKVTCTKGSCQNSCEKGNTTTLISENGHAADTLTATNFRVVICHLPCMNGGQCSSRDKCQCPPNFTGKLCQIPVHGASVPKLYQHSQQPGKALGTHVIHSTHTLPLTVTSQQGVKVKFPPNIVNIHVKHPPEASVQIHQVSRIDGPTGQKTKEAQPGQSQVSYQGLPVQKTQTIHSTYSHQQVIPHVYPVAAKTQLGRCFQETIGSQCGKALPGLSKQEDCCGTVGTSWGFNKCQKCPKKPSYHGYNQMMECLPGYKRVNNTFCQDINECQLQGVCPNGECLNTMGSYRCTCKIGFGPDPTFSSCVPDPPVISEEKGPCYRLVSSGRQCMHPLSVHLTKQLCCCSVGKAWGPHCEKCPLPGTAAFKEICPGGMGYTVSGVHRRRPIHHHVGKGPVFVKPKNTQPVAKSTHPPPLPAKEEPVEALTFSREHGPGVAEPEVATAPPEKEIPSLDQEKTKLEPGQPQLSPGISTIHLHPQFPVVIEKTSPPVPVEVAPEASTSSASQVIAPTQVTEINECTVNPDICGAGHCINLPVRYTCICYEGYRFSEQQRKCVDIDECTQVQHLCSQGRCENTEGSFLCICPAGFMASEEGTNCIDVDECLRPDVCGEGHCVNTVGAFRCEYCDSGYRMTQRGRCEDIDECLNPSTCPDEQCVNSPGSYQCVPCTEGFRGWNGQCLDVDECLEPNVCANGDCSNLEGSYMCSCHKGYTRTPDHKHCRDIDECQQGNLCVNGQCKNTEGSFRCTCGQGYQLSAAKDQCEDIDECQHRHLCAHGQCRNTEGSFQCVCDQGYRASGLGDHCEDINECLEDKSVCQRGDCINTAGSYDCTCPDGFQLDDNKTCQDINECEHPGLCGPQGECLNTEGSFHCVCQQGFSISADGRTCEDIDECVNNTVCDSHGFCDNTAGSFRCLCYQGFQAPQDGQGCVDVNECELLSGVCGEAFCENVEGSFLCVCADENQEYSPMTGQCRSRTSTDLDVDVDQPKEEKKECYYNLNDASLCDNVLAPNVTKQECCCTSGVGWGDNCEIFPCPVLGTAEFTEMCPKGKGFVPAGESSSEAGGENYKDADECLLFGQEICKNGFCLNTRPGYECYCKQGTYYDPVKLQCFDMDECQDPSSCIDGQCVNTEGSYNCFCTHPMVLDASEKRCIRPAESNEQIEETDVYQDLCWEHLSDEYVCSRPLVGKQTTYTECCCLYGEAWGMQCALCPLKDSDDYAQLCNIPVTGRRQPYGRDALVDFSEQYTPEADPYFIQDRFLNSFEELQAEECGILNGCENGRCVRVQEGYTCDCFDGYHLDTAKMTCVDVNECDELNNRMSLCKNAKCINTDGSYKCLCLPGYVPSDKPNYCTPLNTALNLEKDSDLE

In the case of `O=C(NC1CCOCC1)c1ccc(-c2cc(-c3c[nH]nc3-c3ccccn3)ccn2)cc1` [GW788388], the Toxicity in rats entry in data set [1] was “induced physeal dysplasia in rats”.

B1: Ab2: TGFβ1 inhibitor test article of a four-week rat toxicology study; b152 gives same data for a context-independent TGFβ1 inhibitor antibody (antibody, V domains shown)
VH: QVQLVQSGAEVKKPGASVKVSCKASGYTFTSYGISWVRQAPGQGLEWMGWISAYNGNTNYAQKLQGRVTMTTDTSTSTAYMELRSLRSDDTAVYYCARAPLGNFDSWGQGTMVTVSS
VL: NFMLTQPHSVSESPGKTVTISCTRSSGSIASNYVQWYQQRPGSSPTTVIYEDNQRPSGVPDRFSGSIDSSSNSASLTISGLKTEDEADYYCQSYDSSNHPVVFGGGTKLTVL
Molecule B1 gave an MTD in [2] greater than 100 mg/kg. In addition, the NOAEL in data set [2] (highest dose evaluated) is 100 mg/kg.

B2: SR-AB43: cycle 3 light chain-optimized antibody, lineage SR-AB23; CDRs SEQ ID NO: 172-177 (antibody, V domains shown)
VH: QVQLVESGGGVVQPGRSLRLSCAASGFTFRSYVMHWVRQAPGKGLEWVAVISHEGSLKYYADSVKGRFTISRDNSKNTLYLQMNSLRAEDTAVYYCARPRIAARRGGFGYWGQGTLVTVSS
VL: B1 VL with S28N, A30D, S31Y, Q54V, S97D, H99Q, P100R
As to B2, the “KD of Fab fragments” value with huLTBP1 proTGFβ1 [3] (SPR, Fab fragments, antigen not given) is “sub-nanomolar”. In addition, in the data set with huLTBP3 proTGFβ1 [4], the “Hu LTBP3-proTGFβ1 Kon” value stood at 337000 M⁻¹ s⁻¹ and the “Hu LTBP3-proTGFβ1 Koff” value came out at 6e-05 s⁻¹. Further, in the data set with huGARP proTGFβ1 [5], the “ForteBio IgG KD Hu GARP-proTGFβ1 (M) Avid” value is reported as “N.B” and the “ForteBio IgG KD Hu GARP-proTGFβ1 in solution (M) Avid” value was “N.B”. In the data set with huLTBP1 proTGFβ1 [6], the “Hu LTBP1-proTGFβ1 Kon” value stood at 244000 M⁻¹ s⁻¹ and the “Hu LTBP1-proTGFβ1 Koff” value amounted to 0.000159 s⁻¹.

B3: SR-AB42-HuFab: human Fab fragment of SR-AB42 used in SPR (antibody, V domains shown)
VH: B2 VH
VL: B1 VL with S28N, A30D, S31N, S96Y, S97D, N98T, H99Q, P100G
In the case of B3, the ka with huGARP proTGFβ1 [7] is 155000 M⁻¹ s⁻¹; with huLTBP3 proTGFβ1 [8] it was 405000 M⁻¹ s⁻¹; with huLTBP1 proTGFβ1 [3], 543000 M⁻¹ s⁻¹; in the data set with huLRRC33 proTGFβ1, 80900 M⁻¹ s⁻¹; with Murine LTBP3 proTGFβ1 it was 1.23e+08 M⁻¹ s⁻¹. The kd with huGARP proTGFβ1 [7] stood at 0.00604 s⁻¹; in the data set with huLTBP3 proTGFβ1 [8], 0.000142 s⁻¹; with huLTBP1 proTGFβ1 [3], 0.000105 s⁻¹; with huLRRC33 proTGFβ1, 0.00353 s⁻¹; with Murine LTBP3 proTGFβ1 it was 0.397 s⁻¹.

B4: SR-AB43-HuFab: human Fab fragment of SR-AB43 used in SPR (antibody, V domains shown)
VH: B2 VH
VL: B1 VL with S28N, A30D, S31Y, Q54V, S97D, H99Q, P100R
In the data set with huLTBP1 proTGFβ1 [3], B4 had a ka of 1.03e+06 M⁻¹ s⁻¹ and a kd of 0.000284 s⁻¹. Moreover, in the data set with Murine LTBP3 proTGFβ1, the ka was determined as 1.82e+09 M⁻¹ s⁻¹ and the kd was determined as 6.37 s⁻¹.

B5: SR-AB62: cycle 3 light chain-optimized antibody, lineage SR-AB24; CDRs SEQ ID NO: 286-291 (antibody, V domains shown)
VH: QLQLQESGPGLAKPSETLSLTCTVSGGSIRSSSYYWGWIRQPPGKGLEWIGSISYSATTYYNPSLKSRVTISVDTSKNQFSLKLSSVTAADTAVYYCASDPSYDSAAGMDVWGQGTTVTVSS
VL: DIQMTQSPSSLSASVGDRVTITCRASKVISSYLNWYQQKPGKAPKLLIYYASSLQSGVPSRFSGSGSGTDFTLTISSLQPEDFATYYCQQSNDWPFTFGGGTKVEIK
Turning to B5, in the data set with huLTBP3 proTGFβ1 [4], the “Hu LTBP3-proTGFβ1 Kon” value was 203000 M⁻¹ s⁻¹ and the “Hu LTBP3-proTGFβ1 Koff” value is 7.47e-05 s⁻¹. In addition, in the data set with huGARP proTGFβ1 [5], the “ForteBio IgG KD Hu GARP-proTGFβ1 (M) Avid” value was “N.B” and the “ForteBio IgG KD Hu GARP-proTGFβ1 in solution (M) Avid” value is reported as “N.B”. For the same molecule, in the data set with huLTBP1 proTGFβ1 [6], the “Hu LTBP1-proTGFβ1 Kon” value is 140000 M⁻¹ s⁻¹ and the “Hu LTBP1-proTGFβ1 Koff” value came to 6.82e-05 s⁻¹.

B6: SR-AB63-HuFab: human Fab fragment of SR-AB63 used in SPR (antibody, V domains shown)
VH: B5 VH with A12V, S99G, A106I, D110Q
VL: B5 VL with M4L, K27Q, V28S, Y50A, S53N, N92F, F96L
In the case of B6, the ka with huGARP proTGFβ1 [7] amounted to 2660 M⁻¹ s⁻¹; with huLTBP3 proTGFβ1 [8], 394000 M⁻¹ s⁻¹; in the data set with huLTBP1 proTGFβ1 [3], 371000 M⁻¹ s⁻¹; with huLRRC33 proTGFβ1, 5000 M⁻¹ s⁻¹. For the same molecule, the kd with huGARP proTGFβ1 [7] came out at 0.00093 s⁻¹; with huLTBP3 proTGFβ1 [8], 4.99e-05 s⁻¹; with huLTBP1 proTGFβ1 [3] it was 3.82e-08 s⁻¹; with huLRRC33 proTGFβ1 it was 0.00108 s⁻¹.
